In publication PMC12861664 (2025) one finds Kd data, which are given here for one molecule.

The target of this test is coxsackievirus B5 Faulkner strain, purified virus (wild type) (coxsackievirus B5 (CV-B5/Faulkner)). The test can be described thus: SPR. Background: In SPR one partner is held on a chip, and binding of the other changes the refractive index at the surface.

B1: decay accelerating factor (DAF) protein with tag (receptor)
chain: DCGLPPDVPNAQPALEGRTSFPEDTVITYKCEESFVKIPGEKDSVICLKGSQWSDIEEFCNRSCEVPTRLNSASLKQPYITQNYFPVGTVVEYECRPGYRREPSLSPKLTCLQNLKWSTAVEFCKKKSCPNPGEIRNGQIDVPGGILFGATISFSCNTGYKLFGSTSSFCLISGSSVQWSDPLPECREIYCPAPPQIDNGIIQGERDHYGYRQSVTYACNKGFTMIGEHSIYCTVNNDEGEWSGPPPECRGKSLTSKVPPTVQKPTTVNVPTTEVSPTSQKTTTKTTTPNAQATRSTPVSRTTKHFHETTPNKGSGTTS
Take B1: the Kd worked out at 5.69 nM. In other words, the single-digit nanomolar range.

For orientation: Kd means the equilibrium constant for the complex coming apart.
